Laboratory results reported in patent publication US20230021388A1 (VELOSBIO, published 2023).
Positions count from the first letter of the chain named. Names may count otherwise. Each block holds one binder with its values, some of them ahead of it.

Key:
[1] = target: T1, recombinant human ROR1 extracellular domain (human, UniProt Q01973 30-406); experiment: ELISA with prolonged wash, soluble Fab on coated huROR1-ECD
T1 construct: biotinylated for the filter lifts; also called huROR1-ECD; human ROR1-ECD
T1 sequence (Q01973 30-406 limits assumed): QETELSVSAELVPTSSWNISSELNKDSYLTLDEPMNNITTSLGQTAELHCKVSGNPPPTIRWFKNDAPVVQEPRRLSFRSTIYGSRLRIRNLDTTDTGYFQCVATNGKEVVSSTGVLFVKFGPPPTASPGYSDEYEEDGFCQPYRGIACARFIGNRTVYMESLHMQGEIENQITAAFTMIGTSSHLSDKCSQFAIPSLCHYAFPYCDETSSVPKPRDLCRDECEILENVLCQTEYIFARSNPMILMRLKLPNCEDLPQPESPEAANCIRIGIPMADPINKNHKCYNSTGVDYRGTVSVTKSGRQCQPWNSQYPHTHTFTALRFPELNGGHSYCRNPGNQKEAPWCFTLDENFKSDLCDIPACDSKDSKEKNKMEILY
Description: (§1) The previously described filter lift assay provides a visual, qualitative assessment of antigen binding (Example 1). In order to assess the ROR1 binding activity of Ab1 Fab in a more quantitative fashion, an ELISA assay was developed. A 96-well Costar-3366 plate was coated with 50 μL/well of 1 μg/mL human ROR1-ECD (ACROBiosystems, cat. #RO1-H522y) in PBS overnight at 4° C. The plate was rinsed once with PBS-T and blocked with 100 μL/well of 5% M-P for 1 h at 25° C. Fab samples were serially diluted 3-fold using 5% M-P and 50 μL/well was incubated for 1 h at 25° C. The plate was washed three times with PBS-T and 50 μL/well anti-human kappa, and HRP conjugate (Southern Biotech, cat. #2060-05) diluted 10,000-fold in 5% M-P was added for 1 h at 25° C. In certain assays (extended wash format), the plate was placed in large volumes (up to 1 L) of PBS-T and incubated, with mixing, for 2-5 h prior to the addition of anti-human kappa, HRP conjugate. The plate was washed three times with PBS-T, and developed with 50 μL/well 1-Step Ultra TMB-ELISA (Thermo Scientific, cat. #34028). The reaction was terminated by the addition of 2 N H2504 and the A450 was determined using a Spectramax plate reader.
(§2) Subsequently, the libraries were screened by capture lift to identify the strongest binding variants. The identity of the variants was determined by DNA sequencing and the relative affinities were characterized using an ELISA (described in Example 2) modified to enable further discrimination between the highest affinity variants. Specifically, following the initial incubation with soluble Fab, the plates were washed for a prolonged time (>1 h) in large volumes of PBS-T. The plates were then developed as described in Example 2.

human ROR1 on live cells = target: T2, human ROR1 on live cells (human, UniProt Q01973 30-937); experiment: flow cytometry on live JeKo-1 cells, Fab detected with anti-HA-PE
T2 construct: ROR1-transfected MEC cells (~56,000 copies/cell) or JeKo-1 cells (~13,000 copies/cell); the cell line is named under assay; also called ROR1-transfected MEC cells; JeKo-1 cells
T2 sequence (Q01973 30-937 limits assumed): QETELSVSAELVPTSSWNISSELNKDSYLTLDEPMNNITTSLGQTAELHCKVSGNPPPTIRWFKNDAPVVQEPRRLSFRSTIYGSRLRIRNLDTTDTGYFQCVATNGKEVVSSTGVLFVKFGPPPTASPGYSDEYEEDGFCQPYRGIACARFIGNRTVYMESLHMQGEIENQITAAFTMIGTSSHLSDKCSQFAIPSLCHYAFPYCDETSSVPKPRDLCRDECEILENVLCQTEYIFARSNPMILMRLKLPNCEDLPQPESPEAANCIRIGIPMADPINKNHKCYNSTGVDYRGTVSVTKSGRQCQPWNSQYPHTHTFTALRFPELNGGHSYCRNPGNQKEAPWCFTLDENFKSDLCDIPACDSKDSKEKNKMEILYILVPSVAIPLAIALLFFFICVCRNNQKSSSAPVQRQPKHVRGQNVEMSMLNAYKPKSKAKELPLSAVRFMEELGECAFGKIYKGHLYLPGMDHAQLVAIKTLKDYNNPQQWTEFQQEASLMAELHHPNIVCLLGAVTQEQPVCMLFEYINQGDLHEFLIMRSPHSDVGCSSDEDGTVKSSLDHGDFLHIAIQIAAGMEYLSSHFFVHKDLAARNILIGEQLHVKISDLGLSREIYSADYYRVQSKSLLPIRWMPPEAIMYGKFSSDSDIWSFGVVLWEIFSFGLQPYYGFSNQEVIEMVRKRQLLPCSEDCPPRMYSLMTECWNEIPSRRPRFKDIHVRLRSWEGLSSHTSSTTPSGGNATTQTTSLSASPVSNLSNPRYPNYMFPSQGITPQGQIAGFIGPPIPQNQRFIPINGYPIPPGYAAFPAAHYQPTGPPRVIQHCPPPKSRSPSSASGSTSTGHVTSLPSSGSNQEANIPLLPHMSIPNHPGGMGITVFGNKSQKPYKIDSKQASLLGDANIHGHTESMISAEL
Description: ROR1 binding was quantitated using flow cytometry and 2.5E5 ROR1-transfected MEC cells or JeKo-1 cells for each concentration of Fab variant. The cells were placed in 50 μL of PBS with 2% FBS. Next, the cells were diluted with an equal volume of 2× stock of the test Fab variant and the cells and antibody were co-incubated on ice for 20 min. The cells were then washed 3 times with 300 μL of FACS buffer and were resuspended in 100 μL of a 70-fold dilution of anti-HA.11-PE conjugate, clone 16B12 (BioLegend, cat. #901517) and incubated on ice with reduced light for 20 min. Subsequently, the cells were washed 3 times with 300 μL of FACS buffer and fixed with 2% paraformaldehyde for 10 min at 25° C. The cells then were washed 2 times with 300 μL of FACS buffer and analyzed on a Miltenyi MACSQuant Analyzer.

[2] = target: T1, recombinant human ROR1 extracellular …; experiment: ELISA with prolonged wash, soluble Fab on coated huROR1-ECD; remark: listed apart in the source
Description: as §1, §2

[3] = target: T1, recombinant human ROR1 extracellular …; experiment: as above; remark: listed apart in the source
Description: as §1, §2

[4] = target: T1, recombinant human ROR1 extracellular …; experiment: ELISA, soluble Fab on coated huROR1-ECD
Description: as §1

[5] = target: T1, recombinant human ROR1 extracellular …; experiment: ELISA with prolonged wash, soluble Fab on coated huROR1-ECD; remark: listed apart in the source
Description: as §1, §2

[6] = target: T1, recombinant human ROR1 extracellular …; experiment: ELISA, soluble Fab on coated huROR1-ECD; remark: listed apart in the source
[7] = target: T1, recombinant human ROR1 extracellular …; experiment: ELISA, soluble Fab on coated huROR1-ECD; remark: listed apart in the source

B1: Ab1 Fab variant H1 T32A + H2 F58I (Fab, V domains shown)
VH: QVQLQESGPGLVKPSQTLSLTCTVSGYAFAAYNIHWVRQAPGQGLEWMGSIDPYDGGSSYNQKFKDRLTISKDTSKNQVVLTMTNMDPVDTATYYCARGWYYFDYWGHGTLVTVSS
VL: DIVMTQTPLSLPVTPGEPASISCRASKSISKYLAWYQQKPGQAPRLLIYSGSTLQSGIPPRFSGSGYGTDFTLTINNIESEDAAYYFCQQHDESPYTFGEGTKVEIK
notes: Fab
Kd [1]: 4.5 nM

B5: Ab1 Fab variant H1 T32A + L1 K29E + L2 T69R (Fab, V domains shown)
VH: B1 VH with I51F
VL: B1 VL with K27E, T53R
notes: Fab
Kd [3]: 4.8 nM

B7: Ab1 Fab variant H1 T32A + H2 F58I, G66E (Fab, V domains shown)
VH: B1 VH with G56E
VL: B1 VL
notes: Fab
Kd [1]: 5 nM

B9: Ab1 Fab variant H1 T32A + L1 A25P + L2 L70K (Fab, V domains shown)
VH: B1 VH with I51F
VL: B1 VL with A25P, L54K
notes: Fab
Kd [5]: 2.1 nM | EC50 (read off the curve) (human ROR1 on live cells): ~1 nM

B10: Ab1 Fab variant H1 T32A + H2 F58V, N71H (Fab, V domains shown)
VH: B1 VH with I51V, N61H
VL: B1 VL
notes: Fab
Kd [1]: 2.4 nM

B11: Ab1 Fab variant H1 T32A + H2 S69V (Fab, V domains shown)
VH: B1 VH with I51F, S59V
VL: B1 VL
notes: Fab
Kd [1]: 3.3 nM

B15: Ab1 Fab variant H1 T32A + H2 F58V, S69V, N71H (Fab, V domains shown)
VH: B1 VH with I51V, S59V, N61H
VL: B1 VL
notes: Fab
Kd [1]: 3.9 nM

B16: Ab1 Fab variant H1 T32A + L1 A25P, K29S + L2 T69R (Fab, V domains shown)
VH: B1 VH with I51F
VL: B1 VL with A25P, K27S, T53R
notes: Fab
Kd [3]: 3.9 nM

B17: Ab1 Fab variant H1 T32A + L1 A25P + L2 T69R (Fab, V domains shown)
VH: B1 VH with I51F
VL: B1 VL with A25P, T53R
notes: Fab
Kd [5]: 2.4 nM | EC50 (read off the curve) (human ROR1 on live cells): ~1 nM | Kd [3]: 2.1 nM

B18: Ab1 Fab variant H1 T32A + H2 G66E (Fab, V domains shown)
VH: B1 VH with I51F, G56E
VL: B1 VL
notes: Fab
Kd [1]: 2.7 nM

B20: Ab1 Fab variant H1 T32A + L1 A25P (Fab, V domains shown)
VH: B1 VH with I51F
VL: B1 VL with A25P
notes: Fab
Kd [5]: 1.8 nM | Kd [3]: 1.8 nM

B21: Ab1 Fab variant H1 T32A + H2 F58I, G66E, N71H (Fab, V domains shown)
VH: B1 VH with G56E, N61H
VL: B1 VL
notes: Fab
Kd [1]: 3.4 nM

B22: Ab1 Fab variant H1 T32A + H2 G66E, S69V, N71H (Fab, V domains shown)
VH: B1 VH with I51F, G56E, S59V, N61H
VL: B1 VL
notes: Fab
Kd [1]: 3.2 nM

B23: Ab1 Fab variant H1 T32A + L1 A25P + L2 T69H (Fab, V domains shown)
VH: B1 VH with I51F
VL: B1 VL with A25P, T53H
notes: Fab
Kd [5]: 2.3 nM

B24: Ab1 Fab variant H1 T32A + L1 A25P + L2 Q71T (Fab, V domains shown)
VH: B1 VH with I51F
VL: B1 VL with A25P, Q55T
notes: Fab
Kd [5]: 2.9 nM

B25: Ab1 Fab variant H1 T32A + H2 F58V, G66E (Fab, V domains shown)
VH: B1 VH with I51V, G56E
VL: B1 VL
notes: Fab
Kd [1]: 3 nM

B26: Ab1 Fab variant H1 T32A + L1 K29E (Fab, V domains shown)
VH: B1 VH with I51F
VL: B1 VL with K27E
notes: Fab
Kd [3]: 3.3 nM

B27: Ab1 Fab variant H1 T32A + H2 F58I, S69V (Fab, V domains shown)
VH: B1 VH with S59V
VL: B1 VL
notes: Fab
Kd [1]: 8.5 nM

B28: Ab1 Fab variant H1 T32A + H2 F58V (Fab, V domains shown)
VH: B1 VH with I51V
VL: B1 VL
notes: Fab
Kd [1]: 3.2 nM

B30: Ab1 Fab variant H1 T32A + H2 F58I, N71H (Fab, V domains shown)
VH: B1 VH with N61H
VL: B1 VL
notes: Fab
Kd [1]: 2.2 nM

B32: Ab1 Fab variant H1 T32A + H2 N71H (Fab, V domains shown)
VH: B1 VH with I51F, N61H
VL: B1 VL
notes: Fab
Kd [1]: 2.1 nM

B33: Ab1 Fab variant H1 T32A + H2 F58V, G66E, S69V (Fab, V domains shown)
VH: B1 VH with I51V, G56E, S59V
VL: B1 VL
notes: Fab
Kd [1]: 8 nM

Other lines, results leading:

EC50 (read off the curve) (human ROR1 on live cells): ~2 nM | Kd [2]: 1.1 nM | Kd [3]: 2.3 nM
B2: Ab1 Fab variant H1 T32A + L2 T69R (Fab, V domains shown)
VH: B1 VH with I51F
VL: B1 VL with T53R
notes: Fab

Kd [4]: 96 nM
B3: Ab1 Fab variant H3 W110F (Fab, V domains shown)
VH: B1 VH with A30T, I51F, W100F
VL: B1 VL
notes: Fab

EC50 (read off the curve) (human ROR1 on live cells): ~1 nM | Kd [3]: 2.1 nM
B4: Ab1 Fab variant H1 T32A + L1 K29S + L2 T69R (Fab, V domains shown)
VH: B1 VH with I51F
VL: B1 VL with K27S, T53R
notes: Fab

Kd [2]: 1.6 nM
B6: Ab1 Fab variant H1 T32A + L2 L70K (Fab, V domains shown)
VH: B1 VH with I51F
VL: B1 VL with L54K
notes: Fab

Kd [2]: 1.6 nM
B8: Ab1 Fab variant H1 T32A + L2 L70K, Q71T (Fab, V domains shown)
VH: B1 VH with I51F
VL: B1 VL with L54K, Q55T
notes: Fab

EC50 (read off the curve) (human ROR1 on live cells): ~1 nM | Kd [2]: 1.1 nM
B12: Ab1 Fab variant H1 T32A + L2 T69R, Q71T (Fab, V domains shown)
VH: B1 VH with I51F
VL: B1 VL with T53R, Q55T
notes: Fab

Kd [2]: 1.8 nM
B13: Ab1 Fab variant H1 T32A + L2 T69H, L70K (Fab, V domains shown)
VH: B1 VH with I51F
VL: B1 VL with T53H, L54K
notes: Fab

Kd [2]: 2.3 nM
B14: Ab1 Fab variant H1 T32A + L2 T69H (Fab, V domains shown)
VH: B1 VH with I51F
VL: B1 VL with T53H
notes: Fab

Kd [6]: 3.3 nM | fold increase of binding against Ab1 [7]: ~2 fold
B19: Ab1 Fab variant H1 T32E (Fab, V domains shown)
VH: B1 VH with A30E, I51F
VL: B1 VL
notes: Fab

EC50 (read off the curve) (human ROR1 on live cells): ~2 nM | Kd [3]: 2.1 nM
B29: Ab1 Fab variant H1 T32A + L1 K29S (Fab, V domains shown)
VH: B1 VH with I51F
VL: B1 VL with K27S
notes: Fab

Kd [2]: 1.4 nM
B31: Ab1 Fab variant H1 T32A + L2 T69H, L70K, Q71T (Fab, V domains shown)
VH: B1 VH with I51F
VL: B1 VL with T53H, L54K, Q55T
notes: Fab
